Data from patent US20040248211A1, “ICAM-related protein” (priority 1992, published 2004).

Experiments:
human basophils = assay: Basophil histamine release; format: cell-based; details: added simultaneously with anti-IgE 0.01 μg/ml
Excerpt: Basophils were obtained at low purity by dextran sedimentation of erythrocytes in EDTA-anti-coagulated peripheral venous blood, at slightly enriched percentages from mononuclear cell layers of density gradient Percoll centrifugation preparations, and at high purity (>70%) from leukophoresis packs following clutriation and density gradient centrifugation. In the assays, polyclonal goat anti-human IgE and ICAM-R monoclonals antibodies ICR-1.1, ICR-2.1, ICR-4.2 and ICR-8.1 were used alone or in combination. The […] was used to induce histamine release which was quantitated using an automated fluorometric assay after a 45 minute incubation with secretagogue. LTC4 production was measured by radioimmunoassay as previously described in Schleimer et al., J. Immunol., 143:1310-1317 (1989), while IL-4 in cell supernatants was assayed using the IL-4 Quantikine ELSA kit (R&D Systems, Minneapolis, Minn.). Basophil adhesion to unstimulated or IL-1 treated monolayers of human umbilical vein endothelial cells was examined as previously described in Bochner et al., J. Clin. Invest., 81: 1355-1360 (1988) and Bochner et al., J. Immunol., 142: 3180-3186 (1989), in the presence or absence of ICR-2.1 monoclonal antibody. […]

Resting PBL = assay: CD69 and CD25 upregulation after prepulse; format: cell-based, human; details: 24 hours
Description: Resting PBL isolated as described in Section I above were prepulsed on ICR-1.1 or negative control antibodies, washed and incubated on immobilizedanti-CD3 for 24 hours. The cells were then collected, labeled with monoclonal antibodies to the lymphocyte activation antigens CD69, CD25 and CD80 and examined by flow cytometry.

[1] = system: cell lines which express ICAM-R; assay: Homotypic aggregation assay, cell line panel; format: cell-based, human; details: presence and absence of PMA
Description: In order to determine whether ICAM-R is involved in homotypic cell adhesion, aggregation assays were performed with a panel of cell lines which express ICAM-R including T lymphoblastoid cell lines (SupT1, CEM, Molt 4, Hut 78, Jurkat, SKW3), B lymphoblastoid cells lines (Jijoye, Raji), monocytic cell lines (U937, HL60), a myelogenous cell line (KG-1) and the erythroleukemia cell line K562. To determine the function of the ICAM-R molecule, the cells were incubated with various antibodies before aggregation was assayed. Anti-ICAM-R supernatants produced by hybridomas ICR-2.1, ICR-1.1, ICR-4.2, and ICR-3.1 were used as well as antibody preparations known to block aggregation through a β2 integrin pathway: TS1/18 (ATCC HB203) specific for the CD18 molecule, the β-subunit of LFA-1; TS1/22 (ATCC HB202) specific for the CD11a molecule, the α-chain of LFA-1; and LM2/1 (ATCC HB204) specific for the CD11b molecule, the α-subunit of MAC-1. Purified anti-ICAM-1 antibody and hybridoma supernatant directed against the a-chain of the VLA-4 molecule (hybridoma clone 163H, Michael Longenecker, Alberta, Canada) were used as controls.
Aggregation assays were done in duplicate, with and without addition of PMA (50 ng/ml). 3×10^5 cells in RPMI 1640 medium with 10% fetal calf serum were added in a flat-bottomed 96-well microtest plate. […]

CEM cells = assay: Detergent resistance (cytoskeleton association) assay, CEM; format: cell-based, human
Description: PBL or washed CEM cell suspensions ([…]) were dispensed into Falcon 12×75 mm tubes in ice-cold PBS-5% FBS, pelleted, and resuspended in 50 μl of FITC-conjugated anti-ICAM-R monoclonal antibody 26E3D-1 or 26I10E-2 adjusted to saturating concentration in the same buffer. Antibody binding was permitted to proceed for 30 minutes on ice, afterwhich unbound antibody was removed by pelleting cells which had first been resuspended in 1 ml of […] through an underlaid cushion (0.7 ml) of neat (undiluted) FBS.
For groups stained with FITC-conjugated monoclonal antibody only, the 1 ml suspension was divided into two equal parts, each of which was separately underlaid with FBS, centrifuged, and the supernatant removed by aspiration. Cell pellets were then resuspended in 200 ul of control buffer (13 mM Tris pH 8.0, 150 mM NaCl, 2 mM MgCl2, 2 mM EGTA, 2% FBS, 2.5 ug/ml aprotinin, 1 mM PMSF, 10 mM iodoacetamide) or detergent buffer [0.5% NP-40 (v/v) (US Biochemical, Cleveland, Ohio) in control buffer] and held for 20 minutes at room temperature, or overnight at 4° C., prior to FACS analysis. For groups in which cell surface-bound monoclonal antibody was crosslinked with secondary antibodies, following the first antibody staining step, washed cell pellets were resuspended in 50 ul of FITC-goat anti-mouse IgG (Sigma) diluted 1:100 in PBS-5% FCS and incubated for 30 minutes on ice. […]

Molecule | anti-IgE-induced histamine release (human basophils) | upregulation of CD69 and CD25 in response to immobilized anti-CD3 after prepulse (Resting PBL) | stimulation of homotypic cell-cell aggregation [1] | greater increase in detergent resistance, crosslinked antibody (CEM cells; CEM) | ICAM-R association with cytoskeleton (detergent resistance), antibody alone (CEM cells; FITC-conjugated antibody, similar in PBL)
ICR-8.1: anti-ICAM-R monoclonal antibody, IgG1, domain 1, ATCC HB 11232 (antibody, V domains shown) VH: EIQLQQTGPELVKPGASVKISCKASGYSFTDCIILWVKQSHGKGLEWIGKINPYFGTTTYNLKFKGKATLTVDKSSSTAHMQLNSLTSEDSAVYYCARKEAYPDAMDYWGQGTSVTVSS VL: DAVMTQTPLSLPVSLGDQASISCRSSQSLVHSNGDTYLHWYLQKPGQSPQLLIYKVSNRFSGVPDRFSGSGSGTDFTLKLSRVEAEDLGVYFCSQSTHVPYTFGGGTKLEIK | neither ICR-8.1 nor the domain 2-specific monoclonal antibody ICR-4.2 had any significant potentiating activity | – | – | – | –
ICR-1.1: anti-ICAM-R monoclonal antibody, IgG2a, domain 1, ATCC HB 11053 (antibody, V domains shown) VH: QVQLQQSGAELAKPGASVKMSCKASGYTFTVYWMHWVKQRPGQGLEWIGYINPNTDYTEYNQRFQDKATLTADKSSSTAYMQLSSLTSEDSAVYYCARWGGNSYGLDYWGQGTSVTVSS VL: QIVLTQSPALMSASPGEKVTMTCSASSSVSYIYWYQQKPRSSPKPWIYLTSNLASGVPARFSGSGSGASYSLTISIMEAEDAATYYCQQWKSIPLTFGAGTKLELK | – | do not exhibit decreased ability to upregulate the activation antigens CD69 and CD25 | stimulated homotypic cell-cell aggregation | 2-3 fold | negligible
